Experimental data taken from the DeepSol protein solubility set.

Assay: soluble on expression in E. coli; label from the status in PepcDB or PDB records

| Sequence | soluble on expression in E. coli |
| --- | --- |
| MKLIRKYHMIPYENGSEYESAKRFLENILSASDVDPTTKCRFYQDVLYRIRNHPELPIVTEELFDVIQENLQQQNDNQKRNVKLERRNLKYEVIPEKRESYQEKYYESPPVYKAENEQLFDDVTYHNDGINHLKPRKNVYIKEEPEDEDYHMEYEKIPEINMEQNVNELFMEPQKHAPGKIKKSKKQKKDGTLSRPLGKKEKKSVQYATSNKRQKFDLKRGKSMNNVKPRKLYKLQLDEEDEDEEPMVDETPQNTEISIKKRPFQQDSTKNLNKRQKFDLKRRKNMSRVRPNKIYKMQNLKRNISSTIPDNGTNIPAAKRRVLHGSGSAPPPGSRVYCRLWKF | not soluble |
| MGHHHHHHSHMVGTQPRFLVKIHQKFYWAIRDDLIIHGGYKRSGLTSSFALVAMGPLGRPWAASFGFFFLAVVSLATPTPGEDDDIPVKIHRLTFVKGLVPDVTGGSSYYVCVYPSRKLFCTPTRWKDLSRFLNSETLNQVCSARTIYSVVPVEMLRIISLPLPPEIKSIVGGSIRSQYVSFPTFISLHPAKLPIWKSFANLKVSMKFRSSQWEVAFSVVSKTDYAITYWAEIPGFLIHESATINLINQPLLALYADLHVDMVMRLTDKFIYCQTYTLQQKNLTDPRTGKRPTSSVLIPSPHVKNCQIRRRNETHFVDTCSSAWDNYTSEAHNISRNSSSRGSNATQLVNITANPCTLPTLWDNWPCYTNYRSSPVPEIVIHENILLEGRAIYIIYHQIGLFDQPRLCVATFWMSKEETLLMQLDYPCEVSVEKKGKKFFIKSVVSMYHAISMVTFIWEYGIEIYDFLE | not soluble |
| MSLFLSNVILHQLRKNDNDELVVNYRAESLRNDTSTENLVAELHRVFNAKAGKGFGCFKSDSEFQLWLQEMRRGTLPFYEFSQQSAQRLKNELAKYPFADEGILVMAEYQSLATDYLFIGLLPLNQSLKVTEGLDISATDYLDINKMDIVARIDLSSYETDKESKRYLSYIKGRVGRKVADFFLDFLQADIGLDTKQQNQVLMQAVEDFCADAKFEKEEVISYKKQVYEYCNDQIKAGDEVRVQELSGELPPSNEGVNFFDFTREQGYQLEESFPADRSTVRKLTKYVGAGGGLNLSFDSLLLGERVFYDPETDTLTIKGTPPNLRDQLTRLRLEHHHHHH | soluble |
| MGSDKIHHHHHHMHYEEGDDLVASSMTYSVKEMSMRNVRPVLLSLGLLSTVGIATAADTTTFNVKIAVTKACTITAASATDVDFGSVLSTSTANADANGSVTAQCTALTPYNIALSAGSNAGTANDVTTRRMKNTDALVTTNNFVAYQLYQDLGRSTVWGSTSGTNTLSRTATGINQIYPVYGRVTNPSAGNPATGTYQDTITATIIY | not soluble |
| SSEELLKQALQQAQQLLQQAQELAKKGGGEELLKQALQQAQQLLQQAQELAKKGGGGEELLKQALQQAQQLLQQAQELAKKGGGEELLKQALQQAQQLLQQAQELAKK | soluble |
| MVVDTEYYDLLGVSTTASSIEIKKAYRKKSIQEHPDKNPNDPTATERFQAISEAYQVLGDDDLRAKYDKYGRKEAIPQGGFEDAAEQFSVIFGGDAFASYIGELMLLKNLQKTEELNAEDEAEKEKENVETMEESPADGKTNGTTNAVDAALGNTNEKDDKNKARTTSGNLTVHDGNKKNEQVGAEAKKKKTKLEQFEEEQEVEKQKRVDQLSKTLIERLSILTESVYDDACKDSFKKKFEEEANLLKMESFGLDILHTIGDVYYEKAEIFLASQNLFGMGGIFHSMKAKGGVFMDTLRTVSAAIDAQNTMKELEKMKEASTNNGPLFDKDGNEQIKPTTEELAQQEQLLMGKVLSAAWHGSKYEITSTLRGVCKKVLEDDSVSKKTLIRRAEAMKLLGEVFKKTFRTKVEQEEAQIFEELVAEATKKKRHT | not soluble |
| MGSDKIHHHHHHAGFGVAGLSEKTYKTVLNTNMGALYSPSLSAQVVDGACYLINYELDLNSPENANAATNGYLTATISVADEITKGQPVFYNVPDSASLLQNEIPVKNLFSNGDYGVYVDGYLFFFITMDMFKDQKNSYTLYWDRSKEPTMVDNVPTYDLFLRVAKVADGTGSAASSIGEVRAFNVKSVLESVNSAEANKDSKSFNLKVNYLNTINEKDSTDLKWASYTVLFQVVKNS | not soluble |
| MPGTRFSGKVVLISGSSKGIGQATAVKFAAEGAKIVLNGRSADDVEKTRKLCMEVGAKPWDLLPTVGDITNEDFVKMMVNTVIHNFGKLDILINNAGTLEVDMTGKEGWEMGVDVMDRSWNSNFKSVLMLTQAAMPHLIKTKGDIVNVSTFLSSGPIGVMSMPYYAVPKAALDQMSRSMAHEYMLKGVRLNTVNPGLVSTSFFARLPGVGDDNARKMENYVQSKTEYIPLGRVCQASDVAETILFLADRKVSECIVGQSIIIDGGSRLCCNIDMSDFKEQMAKA | not soluble |
| GNGRFLTLKPLPDSIIQESLEIQQGVNPFFIGRSEDCNCKIEDNRLSRVHCFIFKKRHAVGKSMYESPAQGLDDIWYCHTGTNVSYLNNNRMIQGTKFLLQDGDEIKIIWDKNNKFVIGFKVEINDTTGLFNEGLGMLQEQRVVLKQTAEEKDLVKKL | soluble |
| DEETKAFEALLSNIVKPVASDIQARTVVLTWSPPSSLINGETDESSVPELYGYEVLISSTGKDGKYKSVYVGEETNITLNDLKPAMDYHAKVQAEYNSIKGTPSEAEIFTTLSCEPDIPNPPRI | soluble |
| MKIISAEQVHQNLNFEELIPLLKQSFSRPFSMPQRQVYSLAPEQSENHDAFALLPSWNEEVIGNKAFTYFPDNAKKHDLPGLFSKIMLFKRQTGEPLALVDGTSVTYWRTAAISALASQLLSRKNSQHLMLFGTGNLASYLVKAHLTVRDIKQVTLWGRNAKKVSKLIADFSILYPAVTFKTSVDVNAEVASADIICCATGAKTPLFDGNSVSAGCHIDCLGNHMTDARECDTTTILRARVFVDSLTNTLNEAGELLIPMAEDAFNKDEIVGELADMCKTPSMLRQSSDEITLFKSVGTAISDLVAAHSVVEKLAD | not soluble |
| MIGMAEVKLINIWKRFGDVTAVKDLSLEIKDGEFLVLLGPSGCGKTTTLRMIAGLEEPTRGQIYIEDNLVADPEKGVFVPPKERDVAMVFQSYALYPHMTVYDNIAFPLKLRKVPKQEIDKRVREVAEMLGLTELLNRKPRELSGGQRQRVALGRAIIRRPKVFLMDEPLSNLDAKLRVKMRAELKKLQRQLGVTTIYVTHDQVEAMTMGDRIAVMNKGELQQVGTPDEVYYKPVNTFVAGFIGSPPMNFLDATITDDGFLDFGEFKLKLLQDQFEVLEEENMVGKEVIFGIRPEDVHDASFTHIDVPEENTVKATVDIIENLGGEKIVHLRRGNISFTAKFPKESKVREGDEVSVVFDMKKIHIFRKDTEKAIF | soluble |
| SARRISSQGKVTISVDEYSSNPTQAFTHYNINQSRFQPPHVHMVEPLPYDAPKSVGHTRFVCVSDTHSRTDGIQMPFGDVLLHTGDFTELGLPSEVKKFNDWLGGLPYEYKVVIAGNHELTFDKDFMAELIKQDYYRFPSVSKLRSEDFDDVQSLLTNCVYLQDSEVTIKGFRIYGAPWTLWFNGWGFNLPRGQSLLDKWNQIPEDVDILMTHGPPLGFRDWLPKELQRVGCVELLNTVQKRVRPKLHAYGGIHEGYGIMTDGYTTFINSSTCTVSFQPTNPPIIFDLPNPGNS | soluble |
| MNIPQLTALCLRYHGVLLDASEEVVHVAVVDAPSHELLDALHFATTKRIEITCWTRQQMEGHASRTQQTLPVAVQEKHQPKAELLTRTLQSALEQRASDIHIEPADNAYRIRLRIDGVLHPLPDVSPDAGVALTARLKVLGNLDIAEHRLPQDGQFTVELAGNAVSFRIATLPCRGGEKVVLRLLQQVGQALDVNTLGMQPLQLADFAHALQQPQGLVLVTGPTGSGKTVTLYSALQKLNTADINICSVEDPVEIPIAGLNQTQIHPRAGLTFQGVLRALLRQDPDVIMIGEIRDGETAEIAIKAAQTGHLVLSTLHTNSTCETLVRLQQMGVARWMLSSALTLVIAQRLVRKLCPHCRRQQGEPIHIPDNVWPSPLPHWQAPGCVHCYHGFYGRTALFEVLPITPVIRQLISANTDVESLETHARQAGMRTLFENGCLAVEQGLTTFEELIRVLGMPHGE | soluble |
| MTTLPPPATELSADEARRLALRAQGFLGAPDRRAGVRGVLRHLGAVQLDTISVLARSHELIPYARLGAVGRRTVDDAYWTDTHAFEYWSHAACILPIEEWPHFAFRRRAYRNRPHWNHHLPEGDYDRVVKQLREEGPLTATDLGGAKRTSEWWDWSGTKVAVERALMYGEVVCVERRGWKRVYDLAERAVPAALLHDDLDDTECLRRLVRLAGQSLGVGTRADIADYHRLKAEQVDAVIADSGLVPVTVAGWGRPAWADPAALETVPRGRHRTTLLSPFDSLIWERARTERIFGFTHRLEAYVPRQKRVHGYFAMPVLAGGRLVGRVDPAREGRTLVAKQVTLDGPKAAPAVAQALVEAAGWVDCTNVRVERVETPDLREPLARELARLLDLEHHHHHH | not soluble |
| MSLSIFSHFQERFEATRQEEYSLQEYLDLCKQDKTAYASAAERLLMAIGEPELLDTSVDSRLSRIFSNKVIRRYPAFADFHGMEECIDQIVAFFRHAAQGLEEKKQILYLLGPVGGGKSSLAEKLKQLMEKVPFYAIKGSPVFESPLGLFNPDEDGAILEEDYGIPRRYLRSIMSPWATKRLNEFGGDISQFRVVKLYPSILNQIAIAKTEPGDENNQDISALVGKVDIRKLEEYPQNDADAYSYSGALCRANQGLMEFVEMFKAPIKVLHPLLTATQEGNYNSTEGLGALPYSGIILAHSNESEWHSFRNNKNNEAFIDRIYIVKVPYCLRVADEIKIYDKLLVNSSLAHAHCAPDTLKMLSQFSVLSRLKEPENSNIYSKMRVYDGENLKDTDPKAKSIQEYRDSAGVDEGMAGLSTRFAFKILSKVFNFDPHEVAANPVHLLYVLEQQIEQEQFQPETRERYLRFIKEYLAPRYVEFIGKEIQTAYLESYSEYGQNIFDRYVLYADFWIQDQEYRDPETGEILNRAALNEELEKIEKPAGISNPKDFRNEIVNFVLRARAGNNGKNPSWLSYEKLRVVIEKKMFSNTEDLLPVISFNAKASKEDQQKHNDFVKRMVERGYTEKQVRLLSEWYMRVRKSQEGHHHHHH | soluble |
| MPNMGIEKLYVSQQLTDSAAGMTFTKPQYYKYVQELSLKPKVNSASAYAENRKVDQDTQFDSCDVSINLFQMTSSQRAFMLGQSLAGGGGAIGALNDKAPWITLLYKAPIKVDDTIYYRYGVIYKTQFQPPDDDYKTTEGKPDFSQVPKISGSAQPTEWSFKDGKLEKHPWEWHVDTCDPNCPENIDDTWFNSVSIPSLVTYGSLSLSASSPKDGATGISLDTKPSLTFNNPIMNATSILLYNVSDGATVNTTTSSDSSGKIITITPSTNLVANKNYVLVVQDVTDLYGQTLDTQLIRFTTATAASLEHHHHHH | soluble |
| MDKKPSILIFIVAYNAESTIENVLMRIPADLLDDFDAEVLVIDDQSSDDTVLRCAETIQSGKIRFKTNVLVNPENQGYGGNQKVGYQYAIEHDFDCVALLHGDGQYAPEYLRDLITPVTKGEAEAVFGSRMMTPFGALKGGMPAYKFVGNKILTLFQNIMLKTSLSEFHSGYRAYSVKALKQIPFHLNTPDFHFDTEIIIQLILWGFRIAERPIPTYYGDEICYVNGLKYALDVVITTTKARMQRLGLFHECKYEVIHPHNSNGYPEAKLSIKSPSGNRILEHHHHHH | not soluble |
| MRGSHHHHHHGMTIFEKKPDFTLFLQTLSWEIDDQVGIEVRNELLREVGRGMGTRIMPPPCQTVDKLQIELNALLALIGWGTVTLELLSEDQSLRIVHENLPQVGSAGEPSGTWLAPVLEGLYGRWVTSQAGAFGDYVVTRDVDAEDLNAVPRQTIIMYMRVRSSAT | soluble |
